Biological target: human angiotensin-converting enzyme 2 receptor (hACE2) (human) (UniProt Q9BYF1)
Assay: SPR

“S-2P (prefusion-stabilised SARS-CoV-2 spike with K986P and V987P) (domain or fragment)” gave a Kd of 0.2 nM.
